According to patent publication US20090263375:

Key:
[1] = target: T1, FLAG-Star-PAP ΔPRR ½ (lacking amino acids 223-274)
T1 chain: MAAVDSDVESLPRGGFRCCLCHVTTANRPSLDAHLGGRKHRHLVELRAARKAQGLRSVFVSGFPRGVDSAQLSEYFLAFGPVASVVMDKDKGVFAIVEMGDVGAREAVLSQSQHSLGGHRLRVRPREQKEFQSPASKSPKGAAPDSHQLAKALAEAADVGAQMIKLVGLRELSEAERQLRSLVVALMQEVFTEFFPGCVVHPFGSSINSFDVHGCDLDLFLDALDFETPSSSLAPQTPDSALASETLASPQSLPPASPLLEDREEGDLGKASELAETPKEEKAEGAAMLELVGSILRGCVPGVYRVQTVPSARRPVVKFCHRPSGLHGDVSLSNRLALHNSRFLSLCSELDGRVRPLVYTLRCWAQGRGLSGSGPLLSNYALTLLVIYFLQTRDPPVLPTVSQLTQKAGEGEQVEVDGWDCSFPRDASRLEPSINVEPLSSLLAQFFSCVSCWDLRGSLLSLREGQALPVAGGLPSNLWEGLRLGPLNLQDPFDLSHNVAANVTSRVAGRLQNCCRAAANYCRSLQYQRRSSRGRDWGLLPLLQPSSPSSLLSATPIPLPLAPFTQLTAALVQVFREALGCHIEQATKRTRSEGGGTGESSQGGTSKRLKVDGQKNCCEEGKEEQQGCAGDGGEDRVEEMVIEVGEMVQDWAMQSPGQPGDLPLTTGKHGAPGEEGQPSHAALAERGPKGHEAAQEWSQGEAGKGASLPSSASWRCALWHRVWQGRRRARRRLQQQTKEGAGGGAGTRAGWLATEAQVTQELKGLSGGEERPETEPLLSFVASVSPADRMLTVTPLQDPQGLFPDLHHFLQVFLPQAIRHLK

[2] = target: T2, Flag-Star-PAP (full length)
T2 chain: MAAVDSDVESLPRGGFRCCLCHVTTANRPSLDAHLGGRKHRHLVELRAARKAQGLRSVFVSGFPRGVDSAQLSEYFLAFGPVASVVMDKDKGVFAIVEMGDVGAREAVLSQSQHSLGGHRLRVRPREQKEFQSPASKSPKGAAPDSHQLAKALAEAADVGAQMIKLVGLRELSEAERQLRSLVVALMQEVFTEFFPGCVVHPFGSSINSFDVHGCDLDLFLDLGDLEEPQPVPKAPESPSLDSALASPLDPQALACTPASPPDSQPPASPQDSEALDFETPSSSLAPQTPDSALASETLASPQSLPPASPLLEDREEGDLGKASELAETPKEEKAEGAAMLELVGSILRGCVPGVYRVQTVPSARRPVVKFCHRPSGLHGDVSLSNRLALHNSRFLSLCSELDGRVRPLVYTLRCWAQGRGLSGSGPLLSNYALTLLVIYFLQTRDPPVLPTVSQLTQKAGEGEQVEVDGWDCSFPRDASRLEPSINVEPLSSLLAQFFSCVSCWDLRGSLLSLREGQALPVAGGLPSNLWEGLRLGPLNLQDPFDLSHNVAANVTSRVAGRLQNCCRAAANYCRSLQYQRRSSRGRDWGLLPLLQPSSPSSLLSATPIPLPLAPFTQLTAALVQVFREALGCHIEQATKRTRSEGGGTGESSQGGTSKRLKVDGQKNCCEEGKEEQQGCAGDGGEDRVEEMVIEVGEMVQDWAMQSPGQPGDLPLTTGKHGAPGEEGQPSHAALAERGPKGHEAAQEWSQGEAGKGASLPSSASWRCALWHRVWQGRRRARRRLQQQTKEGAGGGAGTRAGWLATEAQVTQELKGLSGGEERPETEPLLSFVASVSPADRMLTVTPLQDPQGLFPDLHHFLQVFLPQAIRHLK

B1: FLAG-CKIα (wild type) (protein)
chain: MASSSGSKAEFIVGGKYKLVRKIGSGSFGDIYLAINITNGEEVAVKLESQKARHPQLLYESKLYKILQGGVGIPHIRWYGQGKDYNVLVMDLLGPSLEDLFNFCSRRFTMKTVLMLADQMISRIEYVHTKNFIHRDIKPDNFLMGIGRHCNKLFLIDFGLAKKYRDNRTRQHIPYREDKNLTGTARYASINAHLGIEQSRRDDMESLGYVLMYFNRTSLPWQGLKAATKKQKYEKISEKKMSTPVEVLCKGFPAEFAMYLNYCRGLRFEEAPDYMYLRQLFRILFRTLNHQYDYTFDWTMLKQKAAQQAASSSGQGQQAQTPTGF
- in vitro kinase assay: phosphorylation of FLAG-Star-PAP truncation and deletion mutants [1]: CKIα was able to phosphorylate all truncation mutants except those which lacked the first half of the proline rich region (ΔPRR ½, amino acids 223-274)
- in vitro kinase assay: phosphorylation of heat inactivated FLAG-Star-PAP [2]: Purified FLAG-CKIα was able to directly phosphorylate heat inactivated Star-PAP
